In article PMC8185548:

Target: CD47 (mouse (endogenous in AB1 cells)) (UniProt Q61735)
Experiment: proximity ligation; fixed MM (AB1) cells on coverslips, resting (PBS) or treated overnight with 400 nM BoxA or 10 nM CXCL12; primary antibodies to CD47 together with anti-CXCR4, anti-RAGE or anti-TLR4; Duolink probes; confocal imaging, signal per cell quantified

Sequence of UniProt Q61735 (Q61735 19-303): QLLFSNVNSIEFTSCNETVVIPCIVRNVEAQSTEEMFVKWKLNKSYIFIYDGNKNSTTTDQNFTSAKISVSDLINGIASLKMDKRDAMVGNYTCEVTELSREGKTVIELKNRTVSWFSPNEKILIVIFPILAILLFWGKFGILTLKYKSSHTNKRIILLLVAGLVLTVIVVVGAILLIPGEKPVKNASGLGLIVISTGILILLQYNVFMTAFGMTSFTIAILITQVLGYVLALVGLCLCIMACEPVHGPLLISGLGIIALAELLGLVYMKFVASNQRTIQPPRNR

Substance | PLA signal, fold lower than that of CD47 and CXCR4 (fold lower than CD47/CXCR4)
RAGE (from UniProt Q62151 23-402) (receptor) | 100
TLR4 (from UniProt Q9QUK6 26-835) (receptor) | 100
